{"source": "patent US8586357B2", "about": "“Markers of definitive endoderm” (ViaCyte, Inc., priority 2003, dated 2013)", "molecules": {"B1": {"name": "Activin A: growth factor of the TGFβ superfamily, Nodal/Activin subgroup; definitive endoderm inducer (protein, UniProt P08476 311-426, looked up)", "Inhibin beta A chain": "GLECDGKVNICCKKQFFVSFKDIGWNDWIIAPSGYHANYCEGECPSHIAGTSGSSLSFHSTVINHYRMRGHSPFANLKSCCVPTKLRPMSMLYYDDGQNIIKKDIQNMIVEECGCS"}}, "key": {"[1]": {"system": "hESCs (hESCyt-25)", "assay": "Q-PCR gene expression assay of marker genes in differentiating hESCs", "assay_type": "cell-based, human", "settings": "for suppression of AFP gene expression: in comparison to no treatment (10% FBS alone), FIG. 8A", "protocol": "In the following experiments, real-time quantitative RT-PCR (Q-PCR) was the primary assay used for screening the effects of various treatments on HESC differentiation. In particular, real-time measurements of gene expression were analyzed for multiple marker genes at multiple time points by Q-PCR. Marker genes characteristic of the desired as well as undesired cell types were evaluated to gain a better understanding of the overall dynamics of the cellular populations. The strength of Q-PCR analysis includes its extreme sensitivity and relative ease of developing the necessary markers, as the genome sequence is readily available. Furthermore, the extremely high sensitivity of Q-PCR permits detection of gene expression from a relatively small number of cells within a much larger population. In addition, the ability to detect very low levels of gene expression provides indications for “differentiation bias” within the population. The bias towards a particular differentiation pathway, prior to the overt differentiation of those cellular phenotypes, is unrecognizable using immunocytochemical techniques. […] Additionally, Q-PCR provides a mechanism by which to evaluate the success of a differentiation protocol in a quantitative format at semi-high throughput scales of analysis.\nThe approach taken here was to perform relative quantitation using SYBR Green chemistry on a Rotor Gene 3000 instrument (Corbett Research) and a two-step RT-PCR format. Such an approach allowed for the banking of cDNA samples for analysis of additional marker genes in the future, thus avoiding variability in the reverse transcription efficiency between samples.\nPrimers were designed to lie over exon-exon boundaries or span introns of at least 800 bp when possible, as this has been empirically determined to eliminate amplification from contaminating genomic DNA.\nWe routinely used Q-PCR to measure the gene expression of multiple markers of target and non-target cell types in order to provide a broad profile description of gene expression in cell samples. The markers relevant for the early phases of hESC differentiation (specifically ectoderm, mesoderm, definitive endoderm and extra-embryonic endoderm) and for which validated primer sets are available are provided below in Table 1. […] This is an important fact since the hESCs were often grown on mouse feeder layers. Most typically, triplicate samples were taken for each condition and independently analyzed in duplicate to assess the biological variability associated with each quantitative determination.\nTo generate PCR template, total RNA was isolated using RNeasy (Qiagen) and quantitated using RiboGreen (Molecular Probes). Reverse transcription from 350-500 ng of total RNA was carried out using the iScript reverse transcriptase kit (BioRad), which contains a mix of oligo-dT and random primers. Each 20 μL reaction was subsequently diluted up to 100 μL total volume and 3 μL was used in each 10 μL Q-PCR reaction containing 400 nM forward and reverse primers and 5 μL 2×SYBR Green master mix (Qiagen). Two step cycling parameters were used employing a 5 second denature at 85-94° C. (specifically selected according to the melting temp of the amplicon for each primer set) followed by a 45 second anneal/extend at 60° C. Fluorescence data was collected during the last 15 seconds of each extension phase. A three point, 10-fold dilution series was used to generate the standard curve for each run and cycle thresholds (Ct's) were converted to quantitative values based on this standard curve. The quantitated values for each sample were normalized to housekeeping gene performance and then average and standard deviations were calculated for triplicate samples. At the conclusion of PCR cycling, a melt curve analysis was performed to ascertain the specificity of the reaction. A single specific product was indicated by a single peak at the Tm appropriate for that PCR amplicon. […]"}, "[2]": {"system": "hESCs", "assay": "Validation of definitive endoderm markers by Q-PCR (Example 12)", "assay_type": "cell-based, human", "settings": "100 ng/ml activin A vs no exogenous activin A; Example 12 written in present tense", "protocol": "Using the methods, such as those described in the above Examples, hESCs are differentiated to produce definitive endoderm. In particular, to increase the yield and purity of definitive endoderm in differentiating cell cultures, the serum concentration of the medium is controlled as follows: 0% FBS on day 1, 0.2% FBS on day 2 and 2.0% FBS on days 3-6. Differentiating cell populations are grown in the presence of 100 ng/ml activin A, whereas non-differentiating control populations are grown in the absence of activin A. Human embryonic cell cultures grown in the presence or absence of activin A and in either 2% serum or 10% serum over the entire 6 day differentiation period are also monitored. Daily samples of each culture are withdrawn and the amount of mRNA transcript produced for each of the markers AGPAT3, APOA2, C20orf56, C21orf129, CALCR, CCL2, CER1, CMKOR1, CRIP1, CXCR4, CXorf1, DIO3, DIO3OS, EB-1, EHHADH, ELOVL2, EPSTI1, FGF17, FLJ10970, FLJ21195, FLJ22471, FLJ23514, FOXA2, FOXQ1, GATA4, GPR37, GSC, LOC283537, MYL7, NPPB, NTN4, PRSS2, RTN4RL1, SEMA3E, SIAT8D, SLC5A9, SLC40A1, SOX17, SPOCK3, TMOD1, TRPA1, TTN, AW166727, AI821586, BF941609, AI916532, BC034407, N63706 and AW772192 is measured by Q-PCR."}}}
{"molecule": "B1", "values": [{"measurement": "SOX17 gene expression, dose response", "setting": "[1]; 0, 10, 30 or 100 ng/ml, 3 days adherent then 1, 3 and 5 days suspension culture, FIG. 11", "result": "dose-dependently increases"}, {"measurement": "relative levels of CXCR4 gene expression with increasing dose", "setting": "[1]; 0, 10 or 100 ng/mL, 7 days, FIG. 32", "result": "dramatically increased"}, {"measurement": "CXCR4 expression", "setting": "[1]; 100 ng/mL activin A (A100) vs no exogenous activin A (NF), 6 days, FIG. 26", "result": "high"}, {"measurement": "CXCR4 level", "setting": "[1]; 100 ng/mL activin A, 10% FBS condition, 6 days, FIG. 26", "result": "remarkable decrease"}, {"measurement": "mesoderm differentiation (expression of brachyury)", "setting": "[1]; 100 ng/ml, FIG. 14B", "result": "notable suppression"}, {"measurement": "SOX17 induction compared to no factor medium controls", "setting": "[1]; 4-day time point, 10% serum", "result": 5, "unit": "fold"}, {"measurement": "expression of brachyury relative to untreated control cultures", "setting": "[1]; 10 and 30 ng/ml, later time points, FIG. 14B", "result": "maintain the expression of brachyury at later time points"}, {"measurement": "SOX17 gene expression relative to the undifferentiated control media (SR20)", "setting": "[1]; FIG. 7A", "result": "increases"}, {"measurement": "difference in the level of SOX17 mRNA expression, Activin A vs retinoic acid treated hESCs", "setting": "[1]; FIG. 7A", "result": 10, "unit": "fold"}, {"measurement": "expression of the visceral endoderm marker AFP, dose response", "setting": "[1]; FIG. 13A", "result": "dose-dependent decrease"}, {"measurement": "expression of the neural marker ZIC1", "setting": "[1]; FIG. 14A", "result": "not a dose-dependent effect"}, {"measurement": "expression of MIXL1, GATA4 and HNF3b, dose response", "setting": "[1]; FIGS. 12A-C", "result": "dose-dependent increases"}, {"measurement": "expression of SOX7 (primitive endoderm) and SPARC (parietal endoderm)", "setting": "[1]; FIGS. 13B-C", "result": "remain either unchanged or exhibit suppression at some time points"}, {"measurement": "induction of SOX17 gene expression vs. undifferentiated hESCs", "setting": "[1]; day 4 of differentiation, Activin A at 100 ng/ml, medium with 10% serum, FIG. 19", "result": 19, "unit": "fold"}, {"measurement": "SOX17 gene expression and cell number", "setting": "[1]; doses of 100 ng/mL or more", "result": "potently inducing"}, {"measurement": "suppression of AFP gene expression", "setting": "[1]", "result": 6.8, "unit": "fold"}, {"measurement": "suppression of AFP gene expression", "setting": "[1]; listed as activin A", "result": "approximately 7 fold"}, {"measurement": "expression levels of the Table 4 markers (AGPAT3 ... AW772192)", "setting": "[2]", "result": "high"}]}
